Interaction score data for 2 molecules are collected here from PMC10397247.

Holding throughout (assay): two-hybrid library CCmax;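 also: natural log of median RNA to DNA barcode read ratio; higher means stronger binding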
In assay [1] the target is T1, 4H2646-AA.
T1 chain: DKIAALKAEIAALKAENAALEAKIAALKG
Particulars: mean of both orientations.

Assay [2] deals with T2, 4H3940-AA.
T2 chain: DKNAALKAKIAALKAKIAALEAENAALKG
Particulars: mean of both orientations.

Assay [3] concerns the target T3, 4H3625-AA.
T3 chain: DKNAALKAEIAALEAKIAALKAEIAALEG
Particulars: mean of both orientations.

Assay [4] deals with T4, 4H2187-AA.
T4 chain: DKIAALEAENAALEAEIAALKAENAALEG

In assay [5] the target is T5, 4H278-AA.
T5 chain: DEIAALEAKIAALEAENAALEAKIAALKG
Particulars: mean of both orientations.

The target in assay [6] is T6, 4H3409-AA.
T6 chain: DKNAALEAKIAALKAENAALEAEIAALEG
Particulars: mean of both orientations.

The target of assay [7] is T7, 4H510-AA.
T7 chain: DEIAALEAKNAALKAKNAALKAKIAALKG
Particulars: mean of both orientations.

Assay [8] has as its target T8, 4H3134-AA.
T8 chain: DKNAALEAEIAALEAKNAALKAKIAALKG
Particulars: mean of both orientations.

For assay [9], the target named is T9, 4H390-AA.
T9 chain: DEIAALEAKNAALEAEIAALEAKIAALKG
Particulars: mean of both orientations.

For assay [10], the target named is T10, 4H2758-AA.
T10 chain: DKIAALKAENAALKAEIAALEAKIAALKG
Particulars: mean of both orientations.

The target in assay [11] is T11, 4H2687-AA.
T11 chain: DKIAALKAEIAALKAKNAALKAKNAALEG
Particulars: mean of both orientations.

Assay [12] addresses T12, 4H2873-AA.
T12 chain: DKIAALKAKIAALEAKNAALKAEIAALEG
Particulars: mean of both orientations.

The target in assay [13] is T13, 4H233-AA.
T13 chain: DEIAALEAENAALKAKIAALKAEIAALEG
Particulars: mean of both orientations.

The target in assay [14] is T14, 4H87-AA.
T14 chain: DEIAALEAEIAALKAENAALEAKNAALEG
Particulars: mean of both orientations.

For assay [15], the target named is T15, 4H2705-AA.
T15 chain: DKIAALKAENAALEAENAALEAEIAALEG
Particulars: mean of both orientations.

Assay [16] has as its target T16, 4H2512-AA.
T16 chain: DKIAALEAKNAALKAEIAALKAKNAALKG
Particulars: mean of both orientations.

Assay [17] deals with T17, 4H2985-AA.
T17 chain: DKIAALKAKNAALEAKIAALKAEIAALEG
Particulars: mean of both orientations.

Assay [18] addresses T18, 4H775-AA.
T18 chain: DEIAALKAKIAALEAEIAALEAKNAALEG

For assay [19], the target named is T19, 4H816-AA.
T19 chain: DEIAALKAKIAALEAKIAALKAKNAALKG
Particulars: mean of both orientations.

The target of assay [20] is 4H_GCN4.
4H_GCN4, sequence (chain, as listed by the source): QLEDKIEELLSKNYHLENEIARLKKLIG
Assay [21] addresses T20, 4H2774-AA.
T20 chain: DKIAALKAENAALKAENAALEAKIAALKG
Particulars: mean of both orientations.

In assay [22] the target is T21, 4H406-AA.
T21 chain: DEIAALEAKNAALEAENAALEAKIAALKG
Particulars: mean of both orientations.

The target of assay [23] is T22, 4H249-AA.
T22 chain: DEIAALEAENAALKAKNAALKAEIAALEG
Particulars: mean of both orientations.

Assay [24] addresses T23, 4H_APH.
T23 chain: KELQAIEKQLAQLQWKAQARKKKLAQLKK

Assay [25] has as its target T24, 4H2330-AA.
T24 chain: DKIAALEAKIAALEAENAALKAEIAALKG
Particulars: mean of both orientations.

Assay [26] deals with T25, 4H2165-AA.
T25 chain: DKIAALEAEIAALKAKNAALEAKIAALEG
Particulars: mean of both orientations.

Assay [27] addresses T26, 4H2124-AA.
T26 chain: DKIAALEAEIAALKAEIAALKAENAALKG
Particulars: mean of both orientations.

For assay [28], the target named is T27, 4H2253-AA.
T27 chain: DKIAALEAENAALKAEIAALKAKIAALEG
Particulars: mean of both orientations.

For assay [29], the target named is T28, 4H2592-AA.
T28 chain: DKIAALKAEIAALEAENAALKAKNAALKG
Particulars: mean of both orientations.

Assay [30] addresses T29, 4H1930-AA.
T29 chain: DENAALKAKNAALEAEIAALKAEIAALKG
Particulars: mean of both orientations.

The target of assay [31] is T30, 4H1828-AA.
T30 chain: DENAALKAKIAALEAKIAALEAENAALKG

In assay [32] the target is T31, 4H3015-AA.
T31 chain: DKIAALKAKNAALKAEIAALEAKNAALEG
Particulars: mean of both orientations.

For assay [33], the target named is T32, 4H3001-AA.
T32 chain: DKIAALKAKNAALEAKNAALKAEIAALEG
Particulars: mean of both orientations.

In assay [34] the target is T33, 4H_BCR.
T33 chain: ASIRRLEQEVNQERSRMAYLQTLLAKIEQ
Particulars: mean of both orientations.

Assay [35] has as its target T34, 4H2732-AA.
T34 chain: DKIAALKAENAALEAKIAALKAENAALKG
Particulars: mean of both orientations.

For assay [36], the target named is T35, 4H347-AA.
T35 chain: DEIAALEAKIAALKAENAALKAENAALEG
Particulars: mean of both orientations.

The target in assay [37] is GCN2_T.
Assay [38] concerns the target T36, 4H3073-AA.
T36 chain: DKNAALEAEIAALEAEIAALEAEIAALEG
Particulars: mean of both orientations.

The target in assay [39] is T37, 4H3438-AA.
T37 chain: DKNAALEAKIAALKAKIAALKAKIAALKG
Particulars: mean of both orientations.

Assay [40] addresses T38, 4H2466-AA.
T38 chain: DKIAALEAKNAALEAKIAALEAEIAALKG
Particulars: mean of both orientations.

In assay [41] the target is T39, 4H2343-AA.
T39 chain: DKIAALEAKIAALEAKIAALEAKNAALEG
Particulars: mean of both orientations.

For assay [42], the target named is T40, 4H56-AA.
T40 chain: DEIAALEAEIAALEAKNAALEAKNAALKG
Particulars: mean of both orientations.

Assay [43] addresses T41, 4H452-AA.
T41 chain: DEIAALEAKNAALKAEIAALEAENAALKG
Particulars: mean of both orientations.

Assay [44] has as its target T42, 4H2931-AA.
T42 chain: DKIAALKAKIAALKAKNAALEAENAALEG
Particulars: mean of both orientations.

DKIAALEAENAALEAEIAALKAENAALEG [4H2187-AA]: the interaction score in assay [1] is -1.38; in assay [2], -1.38; in assay [3], -1.12; in [4], -0.477; in assay [5] it was -0.772; in assay [6], -1.46. In addition, the interaction score in assay [7] is 0.192; in assay [8] it was 1.47; in [9] it was 0.639; in assay [10], 0.853; in [11], -0.754; in [12] it was 0.406. The interaction score in assay [13] is -0.428; in assay [14], -2.2; in assay [15], -1.68; in assay [16], 2.24; in assay [17] it was -0.684; in [18], -1.71. The molecule further gave an interaction score in [19] of -0.683.
For the molecule DENAALKAKIAALEAKIAALEAENAALKG [4H1828-AA], the interaction score in assay [20] was -2.2; in [21], -1.37; in [22], -1.44; in [23] it was -1.5; in assay [24], -1.13; in [25] it was -1.45. Besides, the interaction score in assay [26] is -1.37; in [27], -1.65; in assay [28], -1.32; in [29], -0.581; in assay [30], -1.5; in assay [31], 1.34. The interaction score in [32] is -1.83; in assay [33], -1.55; in assay [34], -2.28; in assay [35] it was -1.51; in assay [36] it was -0.947; in assay [37], -2.49. The interaction score in assay [38] is -1.08; in assay [39], -1.01; in assay [40] it was -1.4; in assay [41], -1.69; in assay [42], -1.03; in assay [43] it was -1.35. In addition, the interaction score in [44] was -2.02.
